B1: TREM2 (triggering receptor expressed on myeloid cells 2) with a Myc-tag at the C terminus, wild type [human] / presenilin 1 (PS1), wild type [not stated] (parent)
chain 1: HNTTVFQGVAGQSLQVSCPYDSMKHWGRRKAWCRQLGEKGPCQRVVSTHNLWLLSFLRRWNGSTAITDDTLGGTLTITLRNLQPHDAGLYQCQSLHGSEADTLRKVLVEVLADPLDHRDAGDLWFPGESESFEDAHVEHSISRSLLEGEIPFPPTSILLLLACIFLIKILAASALWAAAWHGQKPGTHPPSELDCGHDPGYQLQTLPGLRDT
chain 2: not shown

Variants of: B1
Test: co-immunoprecipitation with PS1 antibody Ab14, immunoblot band quantification
Conditions: with presenilin 1 (PS1), HEK293 cells stably expressing Myc-tagged TREM2, transfected with PS1, n=3, read off a plot

Variant	ratio to parent (arbitrary unit)
chain 1 R29H	1.2
chain 1 T48M	0.68
chain 1 T78K	1.2

From PMC5750471
